# Results taken from paper PMC12033333 (Nature Communications, 2025).
# T1: MBP-fused phyB^OPM (Arabidopsis thaliana, UniProt P14713 642-1172)
# T1 sequence: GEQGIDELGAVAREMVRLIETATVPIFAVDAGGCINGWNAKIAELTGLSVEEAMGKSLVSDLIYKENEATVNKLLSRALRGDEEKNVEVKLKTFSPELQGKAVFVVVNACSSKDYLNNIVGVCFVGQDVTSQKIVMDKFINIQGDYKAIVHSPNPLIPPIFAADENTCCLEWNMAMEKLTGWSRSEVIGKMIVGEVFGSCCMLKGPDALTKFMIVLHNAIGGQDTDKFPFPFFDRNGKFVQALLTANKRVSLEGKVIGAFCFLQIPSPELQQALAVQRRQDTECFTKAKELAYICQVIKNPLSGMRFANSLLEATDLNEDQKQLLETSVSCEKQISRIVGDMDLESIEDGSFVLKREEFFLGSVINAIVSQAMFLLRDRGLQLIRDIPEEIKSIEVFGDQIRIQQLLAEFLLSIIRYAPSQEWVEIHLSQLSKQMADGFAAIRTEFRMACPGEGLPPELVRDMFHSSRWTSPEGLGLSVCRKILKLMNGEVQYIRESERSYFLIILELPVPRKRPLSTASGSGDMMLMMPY
# T2: GST-PIF3 (Arabidopsis thaliana, UniProt O80536 1-524)
# T2 sequence: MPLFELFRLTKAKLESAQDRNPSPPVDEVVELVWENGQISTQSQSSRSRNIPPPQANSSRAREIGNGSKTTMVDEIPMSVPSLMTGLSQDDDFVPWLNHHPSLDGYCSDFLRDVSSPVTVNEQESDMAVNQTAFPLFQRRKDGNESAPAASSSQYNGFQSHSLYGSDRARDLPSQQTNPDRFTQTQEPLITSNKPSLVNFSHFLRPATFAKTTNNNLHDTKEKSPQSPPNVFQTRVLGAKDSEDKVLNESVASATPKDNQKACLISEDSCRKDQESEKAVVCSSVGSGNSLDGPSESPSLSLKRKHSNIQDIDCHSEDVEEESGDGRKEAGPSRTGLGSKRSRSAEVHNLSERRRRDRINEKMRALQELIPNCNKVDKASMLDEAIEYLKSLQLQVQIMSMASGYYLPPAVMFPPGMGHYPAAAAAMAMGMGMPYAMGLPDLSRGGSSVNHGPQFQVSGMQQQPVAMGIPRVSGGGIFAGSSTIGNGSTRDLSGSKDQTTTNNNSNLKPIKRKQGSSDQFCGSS
# T3: SBP-fused phyA^PSM (Arabidopsis thaliana, UniProt P14712 1-615, chromophore-bound (phycocyanobilin, PCB))
# T3 sequence: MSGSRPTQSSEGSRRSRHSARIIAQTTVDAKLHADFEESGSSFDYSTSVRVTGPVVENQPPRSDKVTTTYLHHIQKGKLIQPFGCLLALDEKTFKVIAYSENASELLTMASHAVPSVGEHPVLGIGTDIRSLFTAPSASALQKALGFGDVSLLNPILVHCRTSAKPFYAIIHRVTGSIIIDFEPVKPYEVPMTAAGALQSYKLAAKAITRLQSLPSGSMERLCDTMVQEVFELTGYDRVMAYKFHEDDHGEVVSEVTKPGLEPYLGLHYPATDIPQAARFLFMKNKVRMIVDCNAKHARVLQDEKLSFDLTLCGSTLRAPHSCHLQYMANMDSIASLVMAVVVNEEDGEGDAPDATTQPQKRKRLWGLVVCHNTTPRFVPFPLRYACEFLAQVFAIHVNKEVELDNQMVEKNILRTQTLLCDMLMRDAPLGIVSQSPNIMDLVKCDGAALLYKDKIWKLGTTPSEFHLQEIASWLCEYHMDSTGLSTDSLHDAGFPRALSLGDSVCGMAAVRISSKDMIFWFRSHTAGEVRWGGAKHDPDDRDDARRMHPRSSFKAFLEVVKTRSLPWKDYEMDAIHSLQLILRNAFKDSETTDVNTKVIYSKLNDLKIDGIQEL
# B1: GST-fused APA (PIF3 86-221 a.a.) (domain or fragment)
# chain: GLSQDDDFVPWLNHHPSLDGYCSDFLRDVSSPVTVNEQESDMAVNQTAFPLFQRRKDGNESAPAASSSQYNGFQSHSLYGSDRARDLPSQQTNPDRFTQTQEPLITSNKPSLVNFSHFLRPATFAKTTNNNLHDTK
# B2: MBP-fused phyA^OPM (domain or fragment)
# chain: KIDGIQELEAVTSEMVRLIETATVPILAVDSDGLVNGWNTKIAELTGLSVDEAIGKHFLTLVEDSSVEIVKRMLENALEGTEEQNVQFEIKTHLSRADAGPISLVVNACASRDLHENVVGVCFVAHDLTGQKTVMDKFTRIEGDYKAIIQNPNPLIPPIFGTDEFGWCTEWNPAMSKLTGLKREEVIDKMLLGEVFGTQKSCCRLKNQEAFVNLGIVLNNAVTSQDPEKVSFAFFTRGGKYVECLLCVSKKLDREGVVTGVFCFLQLASHELQQALHVQRLAERTAVKRLKALAYIKRQIRNPLSGIMFTRKMIEGTELGPEQRRILQTSALCQKQLSKILDDSDLESIIEGCLDLEMKEFTLNEVLTASTSQVMMKSNGKSVRITNETGEEVMSDTLYGDSIRLQQVLADFMLMAVNFTPSGGQLTVSASLRKDQLGRSVHLANLEIRLTHTGAGIPEFLLNQMFGTEEDVSEEGLSLMVSRKLVKLMNGDVQYLRQAGKSSFIITAELAAANK
# Key:
# Assay in all cases: pull-down
# MBP-fused phyB^OPM = biological target: T1, MBP-fused phyB^OPM
# MBP-fused phyA^OPM = biological target: B2
# GST-PIF3 = biological target: T2, GST-PIF3
# SBP-fused phyA^PSM = biological target: T3, SBP-fused phyA^PSM
binder,measurement,setting,value
B1,binding result,MBP-fused phyB^OPM,binds
same,binding result,MBP-fused phyA^OPM,binds
B2,binding result,GST-PIF3,binds
same,binding result,SBP-fused phyA^PSM,binds
